This note sets out measurements from US20180044434A1 (PUBLIC UNIVERSITY CORPORATION YOKOHAMA CITY UNIVERSITY, published 2018).

Substitutions are numbered along the chain they refer to.

T1: Ala mutant of TA0096, SEQ ID NO: 34
T1 peptide: EENMDDQAMQDEMEIGY

T2: Ala mutant of TA0096, SEQ ID NO: 32
T2 peptide: EENMDAQWMQDEMEIGY

T3: Ala mutant of TA0096, SEQ ID NO: 35
T3 peptide: EENMDDQWAQDEMEIGY

T4: Ala mutant having 3-amino acid substitution, SEQ ID NO: 46
T4 peptide: EENMDDAAAQDEMEIGY

T5: Ala mutant having 3-amino acid substitution, SEQ ID NO: 45
T5 peptide: EENAAAQWMQDEMEIGY

B1: A11 (antibody, V domains shown)
VH: AVTLDESGGGLQTPGGALSLVCKASGFDFSSYGMGWMRQAPGKGLEYVAAIRNDGSWTGYGAAVKGHATISRDNGQSTVRLQLNNLRAEDTGTYYCAKTTGSRGGSIDAWGHGTEVIVS
VL: ASTQPSSVSANLGGTVEITCSGGGRYYYGWYQQKSPGSAPVTVIYANDKRPSDIPSRFSGSKSGSTGTLTITGVQAEDEAVYFCGSAETSSYVFGAGTTLTVL
notes: Chicken variable regions in a mouse chimeric antibody (IgG1); also called anti-PAD4 antibody A11
B2: H7 (antibody, V domains shown)
VH: B1 VH with D28T, S31T, G33A, H67R, S71L, N84S, T99Y, R103S, D108G
VL: ASTQPSSVSANPGGTVEITCSGGSGRYYYGWYQQKSPGSAPVTVIYSSTHRPSNIPSRFSGSKSGSTATLTITGVQAEDEAVYFCGTADSSSYVFGAGTTLTVL
notes: Chicken variable regions in a mouse chimeric antibody (IgG1); also called anti-PAD4 antibody H7
B3: G6 (antibody, V domains shown)
VH: B1 VH with D28T, G35E, M37V, H67R, N74D, V79L, G92A, R103S
VL: B1 VL with G14E, E17K, R25N, V43L, D53N, S86T, E88D, S90G, S91K
notes: Chicken variable regions in a mouse chimeric antibody (IgG1); also called anti-PAD4 antibody G6
B4: G8 (antibody, V domains shown)
VH: B1 VH with D28T, S31T, G33A, H67R, S71L, N84S, T99Y, R103S, D108G
VL: ASTQPSSVSANLGGTVEITCSGGNRNYYYGWYQQKSPGSAPVTLIYANDKRPSNIPSRFSGSKSGSTGTLTITGVQAEDEAVYFCGTADTGKYVFGAGTTLTVL
notes: Chicken variable regions in a mouse chimeric antibody (IgG1); also called anti-PAD4 antibody G8
B5: E9 (antibody, V domains shown)
VH: B1 VH with A17T, A24G, D28T, A62S, H67R, G92A, T100S, R103S, I107V
VL: B1 VL
notes: Chicken variable regions in a mouse chimeric antibody (IgG1); also called anti-PAD4 antibody E9
B6: G9 (antibody, V domains shown)
VH: B1 VH with D28T, S31T, G33A, H67R, S71L, N84S, T99Y, R103S, D108G
VL: B1 VL with S2V, S6A
notes: Chicken variable regions in a mouse chimeric antibody (IgG1); also called anti-PAD4 antibody G9

T7 sequence (Q9UM07 whole entry): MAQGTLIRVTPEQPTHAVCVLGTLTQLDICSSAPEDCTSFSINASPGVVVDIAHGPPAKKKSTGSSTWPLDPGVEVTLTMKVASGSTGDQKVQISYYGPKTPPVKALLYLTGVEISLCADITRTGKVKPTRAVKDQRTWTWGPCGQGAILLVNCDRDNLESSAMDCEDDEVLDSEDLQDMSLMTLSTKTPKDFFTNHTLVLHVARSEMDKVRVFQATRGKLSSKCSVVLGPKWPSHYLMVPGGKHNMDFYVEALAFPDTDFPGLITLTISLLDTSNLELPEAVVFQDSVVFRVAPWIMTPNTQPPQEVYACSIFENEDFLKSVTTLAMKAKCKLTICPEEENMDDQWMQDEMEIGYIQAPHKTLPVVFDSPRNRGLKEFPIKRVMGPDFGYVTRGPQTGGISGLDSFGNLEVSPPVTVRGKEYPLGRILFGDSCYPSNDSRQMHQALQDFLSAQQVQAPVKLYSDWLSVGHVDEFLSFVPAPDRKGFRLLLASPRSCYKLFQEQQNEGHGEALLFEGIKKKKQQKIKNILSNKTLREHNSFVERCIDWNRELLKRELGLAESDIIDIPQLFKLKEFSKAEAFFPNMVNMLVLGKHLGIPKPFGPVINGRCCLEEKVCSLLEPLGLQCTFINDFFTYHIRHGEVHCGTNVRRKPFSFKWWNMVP

The target of the first assay is T6, full-length recombinant mouse PAD4 (mouse, UniProt Q9Z183 1-666).
T6 construct: mature; Full-length recombinant
T6 sequence (Q9Z183 whole entry): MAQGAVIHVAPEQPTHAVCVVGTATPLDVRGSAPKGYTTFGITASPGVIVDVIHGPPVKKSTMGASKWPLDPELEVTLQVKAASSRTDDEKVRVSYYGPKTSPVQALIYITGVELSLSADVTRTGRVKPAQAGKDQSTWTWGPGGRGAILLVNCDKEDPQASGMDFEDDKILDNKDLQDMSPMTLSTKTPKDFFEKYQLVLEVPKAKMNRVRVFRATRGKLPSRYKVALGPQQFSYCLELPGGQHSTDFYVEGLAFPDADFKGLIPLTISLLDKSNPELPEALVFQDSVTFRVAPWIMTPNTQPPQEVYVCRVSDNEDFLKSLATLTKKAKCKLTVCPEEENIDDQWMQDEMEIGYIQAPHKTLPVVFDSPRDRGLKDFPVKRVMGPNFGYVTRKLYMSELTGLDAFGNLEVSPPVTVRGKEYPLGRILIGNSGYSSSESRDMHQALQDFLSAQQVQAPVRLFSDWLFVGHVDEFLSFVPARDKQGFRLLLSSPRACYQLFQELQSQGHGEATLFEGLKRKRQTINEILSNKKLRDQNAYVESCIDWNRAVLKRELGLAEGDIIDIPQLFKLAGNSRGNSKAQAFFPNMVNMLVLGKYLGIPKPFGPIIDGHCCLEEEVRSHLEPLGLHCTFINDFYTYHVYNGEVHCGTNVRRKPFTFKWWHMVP
Description: ELISA, coated mouse PAD4; antibody 0.0002441 ug/mL. For orientation: ELISA stands for enzyme-linked immunosorbent assay.
As to B1, the “OD 490/630 nm” value was 0.152.
Turning to B2, the “OD 490/630 nm” value is 0.224.
B3: the “OD 490/630 nm” value is 0.071.
Take B4: the “OD 490/630 nm” value worked out at 0.205.
On to B5, for which the “OD 490/630 nm” value is 0.122.
For B6, the “OD 490/630 nm” value worked out at 0.181.

Another assay has as its target T7, full-length recombinant human PAD4 (human, UniProt Q9UM07 1-663).
T7 construct: Full-length recombinant; also called peptidylarginine deiminase 4
Description: ELISA, coated human PAD4; antibody 6.104E-05 ug/mL.
For the molecule B1, the “OD 490/630 nm” value came out at 0.063.
Regarding B2, the “OD 490/630 nm” value turned out to be 0.111.
Regarding B3, the “OD 490/630 nm” value came out at 0.075.
On to B4, for which the “OD 490/630 nm” value stood at 0.1.
Still for that read-out and setting: the figure for B5 is 0.07.
For the molecule B6, the “OD 490/630 nm” value turned out to be 0.082.

The target of another assay is T1, Ala mutant of TA0096, SEQ ID NO: 34. Description: ELISA, alanine scan (position 347). The protocol:
(§1) The epitope of each of A11 etc. was identified by alanine scan. Specifically, the following procedures (i) to (iii) were carried out. (i) Each amino acid residue of the antigen sequence (SEQ ID NO: 1) was replaced by another amino acid one by one, and 17 different Ala mutants (SEQ ID Nos: 27 to 43) were synthesized. (ii) The reactivity of each of the Ala mutants toward a test antibody was evaluated (ELISA).
(§2) The “96 pAb” designated in the table refers to antiserum as obtained by immunizing a chicken with TA0096 (SEQ ID NO: 1). The 96 pAb, which is an anti-PAD4 polyclonal antibody, can substantially keep the affinity toward PAD4 even if any of single amino acids of PAD4 is replaced.
For the molecule B1, the binding result is given as “no binding”.
On to B2, for which the binding result is “no binding”.
With B3, the binding result is given as “no binding”.
With B4, the binding result was “no binding”.
Turning to B5, the binding result is given as “no binding”.
Consider B6, for which the binding result is recorded as “no binding”.

In the next assay the target is T7, full-length recombinant human PAD4. The assay is described as follows: ELISA, coated human PAD4; antibody 1 ug/mL.
Regarding B1, the “OD 490/630 nm” value came out at 2.15.
For the molecule B2, the “OD 490/630 nm” value is 2.11.
In the case of B3, the “OD 490/630 nm” value was determined as 2.11.
Still for that read-out and setting: with B4 the figure was 2.12; with B5, 2.11; with B6, 2.1.

The next assay concerns the target T6, full-length recombinant mouse PAD4. Description: ELISA, coated mouse PAD4; antibody 6.104E-05 ug/mL.
Consider B1, for which the “OD 490/630 nm” value is 0.045.
On to B2, for which the “OD 490/630 nm” value was found to be 0.103.
On the same count and under the same terms, the figure for B3 is 0.044.
On to B4, for which the “OD 490/630 nm” value turned out to be 0.122.
As for B5, the “OD 490/630 nm” value came out at 0.051.
On to B6, for which the “OD 490/630 nm” value amounted to 0.079.

Another assay shares this target. Description: ELISA, coated mouse PAD4; antibody 0.0009766 ug/mL.
In the case of B1, the “OD 490/630 nm” value stood at 0.386.
Consider B2, for which the “OD 490/630 nm” value came out at 0.55.
Same read-out and setting: the figure for B3 is 0.2; for B4 it is 0.555.
As for B5, the “OD 490/630 nm” value was found to be 0.416.
As for B6, the “OD 490/630 nm” value is 0.542.

A further assay has as its target full-length recombinant human or mouse PAD4 (species used for Table 7 and FIG. 7 not stated). Description: cell-based or functional assay.
Take B1: the Relative citrullination activity was 64 relative to PBS = 100.
Same read-out and setting: with B2 the figure was 35 relative to PBS = 100.
With B3, the Relative citrullination activity is 69 relative to PBS = 100.
Same read-out and setting: with B4 the figure was 63 relative to PBS = 100; with B5, 59 relative to PBS = 100; with B6, 68 relative to PBS = 100.

A further assay addresses T2, Ala mutant of TA0096, SEQ ID NO: 32. The assay is described as follows: ELISA, alanine scan (position 345). On the procedure: as §1, §2
Regarding B2, the binding result was “no binding”.
In the case of B3, the binding result is listed as “no binding”.
On the same count and under the same terms, with B4 the entry was “no binding”; with B6, “no binding”.

The target in the next assay is T3, Ala mutant of TA0096, SEQ ID NO: 35. Description: ELISA, alanine scan (position 348). The protocol: as §1, §2
As to B1, the binding result was “no binding”.
Turning to B2, the binding result is on record as “no binding”.
As to B3, the binding result is given as “no binding”.
Regarding B5, the binding result is “no binding”.

A further assay addresses T7, full-length recombinant human PAD4. The assay is described as follows: ELISA, coated human PAD4; antibody 0.0002441 ug/mL.
B1: the “OD 490/630 nm” value came to 0.206.
Regarding B2, the “OD 490/630 nm” value came out at 0.217.
Still for that read-out and setting: with B3 the figure was 0.166; with B4, 0.184.
On the same count and under the same terms, with B5 the figure was 0.176; with B6, 0.187.

For the next assay the target is unchanged. Description: ELISA, coated human PAD4; antibody 0.25 ug/mL.
As to B1, the “OD 490/630 nm” value amounted to 2.11.
On to B2, for which the “OD 490/630 nm” value is 2.11.
As to B3, the “OD 490/630 nm” value is 2.07.
For the molecule B4, the “OD 490/630 nm” value was 2.1.
With B5, the “OD 490/630 nm” value was found to be 2.08.
For B6, the “OD 490/630 nm” value amounted to 2.08.

In another assay the target is T4, Ala mutant having 3-amino acid …. Description: ELISA, 3-amino acid Ala mutants. The protocol: as §1
(§3) Note that, as additional experiments, 6 different Ala mutants having 3-amino acid substitution (SEQ ID NOs: 44 to 49) were likewise examined in the experiments.
Turning to B1, the binding result is on record as “no binding”.
As to B2, the binding result was “no binding”.
With B3, the binding result is recorded as “no binding”.
Consider B5, for which the binding result is recorded as “no binding”.
Take B6: the binding result is “no binding”.

Another assay addresses T5, Ala mutant having 3-amino acid …. Description: ELISA, 3-amino acid Ala mutants. The protocol:
as §1, §3
Turning to B1, the binding result is listed as “no binding”.
For B2, the binding result was “no binding”.
Turning to B3, the binding result is given as “no binding”.
Same read-out and setting: the entry for B4 is “no binding”; for B5 it is “no binding”.
For B6, the binding result is on record as “no binding”.

Another assay concerns the target T7, full-length recombinant human PAD4. The assay is described as follows: ELISA, coated human PAD4; antibody 0.015625 ug/mL.
Take B1: the “OD 490/630 nm” value came out at 2.08.
Same read-out and setting: with B2 the figure was 2.07; with B3, 2.01; with B4, 2.08.
For B5, the “OD 490/630 nm” value is 2.08.
As for B6, the “OD 490/630 nm” value stood at 2.07.

In another assay the target is T4, Ala mutant having 3-amino acid …. The assay is described as follows: ELISA, coated peptide.
For the molecule B1, the “OD 490/630 nm” value was 0.043.
As to B2, the “OD 490/630 nm” value is 0.044.
Still for that read-out and setting: with B3 the figure was 0.083.
In the case of B5, the “OD 490/630 nm” value came out at 0.027.
On to B6, for which the “OD 490/630 nm” value amounted to 0.131.

The target of a further assay is T2, Ala mutant of TA0096, SEQ ID NO: 32. The assay is described as follows: ELISA, coated peptide.
For B2, the “OD 490/630 nm” value was 0.033.
B3: the “OD 490/630 nm” value is 0.035.
In the case of B4, the “OD 490/630 nm” value is 0.083.
Take B6: the “OD 490/630 nm” value was 0.039.

The target of the next assay is T7, full-length recombinant human PAD4. The assay is described as follows: ELISA, coated human PAD4; antibody 0.0625 ug/mL.
B1: the “OD 490/630 nm” value was 2.15.
Turning to B2, the “OD 490/630 nm” value is 2.12.
As for B3, the “OD 490/630 nm” value is 2.12.
In the case of B4, the “OD 490/630 nm” value amounted to 2.12.
Turning to B5, the “OD 490/630 nm” value turned out to be 2.12.
For the molecule B6, the “OD 490/630 nm” value was found to be 2.11.
